Reference: the supplement of paper PMC9170038

Tested on: MS2 coat protein
Experiment: apparent KD of MS2 coat protein; designed switch direction (-1 OFF switch, 1 ON switch): -1; higher = weaker reporter binding
In short: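 Designed RNA switches with common flanks were made on Illumina chips by stalled E. coli RNA polymerase. Titration with SNAP-549-labelled MS2 coat protein doubled from 0.7 or 1.5 nM up to 3 µM. Apparent KD is each design's median over clusters after curve-fitting normalised fluorescence.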

[1] = Eterna round: R95, input ligand: FMN 200 uM
[2] = Eterna round: R95, input ligand: microRNA oligo, concentration not stated
[3] = Eterna round: R95, input ligand: none
[4] = input ligand: microRNA oligo, concentration not stated

| Sequence | apparent KD of MS2 coat protein [1] | apparent KD of MS2 coat protein [2] | apparent KD of MS2 coat protein [3] | apparent KD of MS2 coat protein (input ligand: FMN 200 uM) | apparent KD of MS2 coat protein [4] | apparent KD of MS2 coat protein (input ligand: none) |
| --- | --- | --- | --- | --- | --- | --- |
| CCAGCGUAUGUGAGGAUAUGCUGGUCCUUGGAUCAGCAGAAGGCACAUGAGGAUCACCCAUGUGGUGACGUUGG [JL bmx4 3.44] (puzzle: Brourd's mod of Exclusion 4) | 19.1 nM | 143 nM | 411 nM |  |  |  |
| GGUGGACAUGAGGAUCACCCAUGUGAGGAUAUCGGCUAUCUUCUCGCUGUCGGUUGCUCGAGAAGGCACAUUGU [Exclusion 1 V94] (Eterna round: R96, puzzle: Exclusion 1) |  |  |  | 112 nM | 50.1 nM | 64.9 nM |
| CUACCCUCAGGAUAUUUUGCACUGUACAUGAGGAUCACCCAUGUGACGUCUGUUAAUCAAAGAGAAGGGAGAGGUG [Eternabot (L1) Solution 27] (Eterna round: R97, puzzle: Exclusion 5) |  |  |  | 19.7 nM |  | 25.1 nM |
| ACAAGAUCGGAAGGAUAUUGUACAUGAGGAUCACCCAUGUAAUAAAUGAGGAUCACGGAUGUAGUCAAGAAGGUCCGGAUAAGA [Ostracism 3 - Jieux - Exclusion NG 2] (Eterna round: R96, puzzle: Exclusion NG 2) |  |  |  | 36.9 nM | 41.2 nM | 43.8 nM |
| AGGAGCCCACGGGCUCCAAAACAUGAGGAUCACCCAUGUCAGUAGGAUAUCAUGCUUUUCUGCUGUGAGAAGGGCUGAUGUGGC [Esededor] (Eterna round: R96, puzzle: Exclusion NG 3) |  |  |  | 199 nM | 33.8 nM | 49 nM |
| UUCAUGUAAGGAUAUACCUCGAGCUGAUGAGAGUCUCAAAUGUAGAAGGUACAUGAGGAUCACCCAUGUACAGG [Eternabot (Original) Solution 5] (Eterna round: R97, puzzle: Exclusion 4) |  |  |  | 65.2 nM |  | 42 nM |
| GGAGAGUGAGGAUAUACAUGAGGAUCACCCAUGUAUAUCAAAUAAAAUAAAUUCUCAUGUAGAAGGCGCUUUUC [Alacar 3rd Attempt] (Eterna round: R97, puzzle: Exclusion 3) |  |  |  | 16.2 nM |  | 14.4 nM |
| GAAAAGGUAGGAUAUACGAAAAAAAAGGGUAGAAAAAAUACACAUGAGGAUCACCCAUGUAGAAGGACCAAAAG [salish99_ex2_r3_073] (Eterna round: R96, puzzle: Exclusion 2) |  |  |  |  | 26.7 nM |  |
| AUAAAAGUAGGAUAUUGACUGAUCGACAUGAGGAUCACCCAUGUGGUGCUGUGCGGUAUUCAAGAAGGGCUAAAAU [Ceisusma] (puzzle: Exclusion 5) |  | 20.4 nM |  |  |  |  |
| GGUCUGCGAGGAUAUACAUGAGGAUCACCCAUGUGCGUGAUACUAGUGAGGUCGGUUGGUAGAAGGCGCGGACG [JL-ex3-2.08 salish99 mod] (puzzle: Exclusion 3) | 128 nM | 245 nM | 649 nM |  |  |  |
| CGCACACAUGAGGAUCACCCAUGUGAGGAUAUCAUGCUUCGUAGUAAACUACGAAGUGUGAGAAGGCACAUGUU [Omei Ex1 D9] (Eterna round: R97, puzzle: Exclusion 1) |  |  |  | 144 nM |  | 55 nM |
| GUCCGACAUGAGGAUCACCCAUGUGAGGAUAUACGAUUAGCUGCUAGGUAGUUAGUAUGUAGAAGGUGCAUGAA [EX1 #74] (Eterna round: R97, puzzle: Exclusion 1) |  |  |  | 30.1 nM |  | 17.5 nM |
| CUCUUGUGAGGAUAUCGAAGAAAAGAAAAGAAAGAAAAGAACGAGAAGGCACAUGAGGAUCACCCAUGUAAGAA [EteRNA is fun!] (Eterna round: R96, puzzle: Exclusion 4) |  |  |  | 127 nM | 30.4 nM | 39.4 nM |
| GCGUAGUAUGUAGGAUAUCGGUCAGUUUCUGAUCGAGAAGGACAUGAGGAUCACCCAUGUAAAACGACCGCUUUGUGGUUACGC [JL ENG1 3.58] (Eterna round: R96, puzzle: Exclusion NG 1) |  |  |  | 42.7 nM | 15.9 nM | 19.2 nM |
| CCCGUACAUGAGGAUCACCCAUGUCAGGAUAUCUAAUCAUGCUGUAAGGCACAUUGAGGGAGAAGGGACAUAUU [EX1 B.29] (Eterna round: R97, puzzle: Exclusion 1) |  |  |  | 32.4 nM |  | 20.8 nM |
| UAUUUAUAGCAAGGAUAUGAUUAUUAUUAUUUAUCAGAAGGUGCACAUGAGGAUCACCCAUGUUUUAUAAUUUGUAAUUUAAUU [Title] (Eterna round: R96, puzzle: Exclusion NG 1) |  |  |  |  | 40.9 nM |  |
| AAGAAGAAGUAAGGAUAUGAAGAUCUGGUGGUGACAUGAGGAUCACCCAUGUGAAAACGAUGAGAUCAGAAGGUACAAGAAGAA [AK ExNG2-3.4] (Eterna round: R96, puzzle: Exclusion NG 2) |  |  |  | 86.4 nM | 65.3 nM | 77.8 nM |
| CCACGUCCGUACGUGUACUUGUCUCCUGUGUGCCCGGGUACAUGAGGAUCACCCAUGUCUGUGCUCGCCUUCUGCCC [JR_Sensorv2_tov2_Sub724] (Eterna round: R96, puzzle: Sensor v2, turn-off variant 2) |  |  |  | 126 nM | 84.7 nM | 165 nM |
| CUUAUGUGAGGAUAUCAGUAGUGAUACGAUAGUAUUACUGCUGAGAAGGCACAUGAGGAUCACCCAUGUUCCUU [Exclusion 4 - Mod Omei Ex4 344 mod v.3] (puzzle: Exclusion 4) |  | 21.9 nM |  |  |  |  |
| GAUUAUGCGAGCUUUAGGGACAUGAGGAUCACCCAUGUUCGUCUUAUUAGUCUAGGUGCGCUAACAUACCUAAAUCU [JMF 50] (puzzle: Sensor v3, turn-off variant 1) | 20.7 nM | 35.4 nM | 21.6 nM |  |  |  |
| UUUUAACAUGAGGAUCACCCAUGUGAGGAUAUCGAAAUUUAUAUUAAUAUUUAUAAAACGAGAAGGCACAUUUU [JMF 51] (puzzle: Exclusion 1) |  | 78.6 nM |  |  |  |  |
| AAAAGGUGAGGAUAUCCGACGUUGCACUUGAGGAUCACCCAAGUUCCUCGCGUGCUUUUAGGAGAAGGCACAAAAC [Tegezaza] (Eterna round: R97, puzzle: Exclusion 5) |  |  |  | 77.3 nM |  | 982 nM |
| UUUAGUUCAGGAUAUGUAGAUUUUAACAUGAGGAUCACCCAUGUAGAUCCUGAAUUAACUACAGAAGGGAGCAUUU [Mod of Brourd 16 - Jieux - Exclusion 5] (Eterna round: R97, puzzle: Exclusion 5) |  |  |  | 33.6 nM |  | 18.4 nM |
| CUCUUGUCAGGAUAUCUUACAUAACAAUCGUAGUUACAAUUGGAGAAGGGACAUGAGGAUCACCCAUGUUAGCG [tap-tap-tappy34] (Eterna round: R97, puzzle: Exclusion 4) |  |  |  | 337 nM |  | 149 nM |
| AUUAAACAUGUAGGAUAUGCGUGGCGAAGCUAUGCAGAAGGACAUGAGGAUCACCCAUGUAAAAGCGUCUGCGUACAGAUGCAA [Mat - Exclusion NG 1 - Mod of JL - D84] (Eterna round: R96, puzzle: Exclusion NG 1) |  |  |  | 468 nM | 28 nM | 38.9 nM |
| GAAAAGAGAGGAUAUACAAGAAGAAAAGAAAAGAAAAGAAAACAUGAGGAUCACCCAUGUAGAAGGCUCAAAAG [Default title] (puzzle: Exclusion 2) | 18.2 nM | 12.7 nM | 20.3 nM |  |  |  |
